Among the data in patent US20220195015A1 (published 2022) are EC50 values, retold here.

The target in test [1] is SARS-CoV-2 RBD (S protein residues 319-539), wild type (SARS-CoV-2, UniProt P0DTC2 319-539). Briefly: ELISA, RBD coated on plate, mAb titrated.
Test [2] addresses SARS-CoV-2 receptor binding domain (RBD), wild type (SARS-CoV-2, UniProt P0DTC2 319-539). Briefly: ELISA, RBD coated on the plate, antibody titrated.
In test [3] the target is SARS-CoV-2 spike receptor binding domain (RBD), wild type (SARS-CoV-2, UniProt P0DTC2 319-539). Briefly: ELISA on coated RBD protein. A general note: ELISA stands for enzyme-linked immunosorbent assay.

B1: C584 (antibody, V domains shown)
VH: EVQLVESGGGLVQPGGSLRLSCAASGFTFSTYDMHWVRQATGKGLEWVSAIGTAGDKYYPGSVKGRFTISRENAKNSLYLQMNSLRAGDTAVYYCVRAGYSSGWPLYWYFDLWGRGTLVTVSS
VL: DIQMTQSPSSLSASVGDRVTITCRASQSISSYLNWYQQKPGKAPKFLIYAASSLQSGVPSRFSGSGSGTDFTLTISNLQPEDFATYYCQQSYRTPPEFTFGPGTKVDIK
As a reminder, the EC50 is the concentration that produces a half-maximal response. As for B1, the concentration giving a half-maximal response (EC50) in test [1] was 10.5 ng/mL.

B2: C587 (antibody, V domains shown)
VH: QVQLVQSGAEVKKSGSSVKVSCKASGGSFSSYAISWVRQAPGQGLEWMGGIIPIFGTAKYAQKFQGRVTITADESTSTAYMELSSLRSEDTAVYYCASRWEQLNGGSWHYFDYWGQGTLVTVSS
VL: QSALTQPASVSGSPGQSITISCTGTRSDVGRNNLVSWYQHHPGKAPKVMIYEGSKRPSGVSTRFSGSKSGNTASLTISGLQAEDEADYYCCSYAGSSTFEGVFGGGTKLTVL
With B2, in test [1], a half-maximal response (EC50) required 4.39 ng/mL.

B3: C583 (antibody, V domains shown)
VH: EVQLVESGGGLIQPGGSLRLSCAASILTVSRNYMSWVRQAPGKGLEWVSSIYSGGTTYYADSVKGRFTISRDDSKNTLYLQMNSLRAEDTAVYYCARPVVGGRAGMDVWGQGTTVTVSS
VL: DIQMTQSPSSLSASVGDRVTITCQASQDINKYLNWYQQKPGKAPKLLIYDASNLETGVPSRFSGSGSGTDFTFTISSLQPEDIGTFYCLHNDNPPLTFGGGTKVEIK
In test [1], B3 showed an EC50 of 4.42 ng/mL.

B4: C596 (antibody, V domains shown)
VH: QVQLVESGGGVVQPGRSLRLSCAASGITFSHYGMHWVRQAPGKGLEWVALISSDGSKKYYADSVKGRFTISRDNSKSTLYLQMNSLRAEDTAIYYCAKDLGYYYGPPYGPDYWGQGTLVTVSS
VL: DIQMTQSPSSLSASVGDRVTITCQASQDVSNSLNWYQQKPGKAPKLLIYDASNLETGVPSRFSGSGSGTDFSFTISSLQPEDIATYYCLQYDNFSMYTFGQGTKLEIK
The molecule B4 returned an EC50 in test [2] of 21 ng/mL.

B5: C586 (antibody, V domains shown)
VH: EVQLVESGGGLIQPGGSLRLSCTASGLIVSSNYMSWIRQAPGKGLEWVSLIYSGGSTFYADSVKGRFTISRDNSKNTLFLHMNSLRAEDTAVYYCARHPYGTDVWGQGTTVTVSS
VL: DIQMTQSPSSLSASVGDRVTITCQASQDIVKYLNWYQQKSGKAPKLLIHDASNLETGVTSRFSGSGSGTHFTFTISSLQPEDLATYYCQQYDNLPITFGQGTRLEIK
B5 registered a concentration for a half-maximal effect (EC50) in test [1] of 5.42 ng/mL.

B6: C582 (antibody, V domains shown)
VH: QVQLVESGGGVVQPGRSLRLSCVASGFTFSYFDMHWVRQAPGKGLEWVALISHDGSTTFYGDSARGRFTISRDNSRNTLDLQMNSLRPEDTAVYFCAKPVDAAMFDFWGQGTLVTVS
VL: SYELTQPPSVSVAPGKTARITCGGNNIGSKSVHWYQQRPGQAPVLVIYYDSDRPSGIPERFSGSNSGNTATLTISRVEAGDEADFYCQVWDRSTNHLVVFGGGTQLTVL
In test [1], B6 yielded a concentration for a half-maximal effect (EC50) of 8.43 ng/mL.

B7: C593 (antibody, V domains shown)
VH: QVQLVQSGAEVKKPGASVKVSCKASGYTFTSYDINWVRQAPGQGLEWMGWMNPNSGNTDYAQKFQGRFTMTRNTSISTAYMELSSLRSEDTAVYYCASRRWDPLTFYYYMVVWGKGTTVTVSS
VL: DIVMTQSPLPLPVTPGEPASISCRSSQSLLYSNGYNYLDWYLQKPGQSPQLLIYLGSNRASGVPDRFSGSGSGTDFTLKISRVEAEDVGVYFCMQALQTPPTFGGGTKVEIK
As for B7, it took 4.36 ng/mL to reach a half-maximal effect in test [2] (EC50).

B8: C590 (antibody, V domains shown)
VH: QVQLVQSGAEVKKPGASVKVSCKVSGYNLTELSMYWVRQAPGKGLEWMGGFDPEDGGPIHAQKFQGRVTMTEDPSTDTAYMELRSLRSEDTALYYCATGGLFMIRGLEIWGRGTLVTVSS
VL: EIVLTQSPGTLSLSPGERATLSCRASQSISYTSLAWYQQKPGQAPRLLIFGASRGATGTPDRFSGSWSGTDFTLTISRLEPEDFAVYYCQQYGNSPRLSFGGGTKVEIK
For the molecule B8, in test [2], the EC50 is 2.81 ng/mL.

B9: C590 (antibody, V domains shown)
VH: QVQLVQSGAEVKKPGASVKVSCKVSGYNLTELSMYWVRQAPGKGLEWMGGFDPEDGGPIHAQKFQGRVTMTEDPSTDTAYMELRSLRSEDTALYYCATGGLFMIRGLEIWGRGTLVTVSS
VL: EIVLTQSPGTLSLSPGERATLSCRASQSISYTSLAWYQQKPGQAPRLLIFGASRGATGTPDRFSGSWSGTDFTLTISRLEPEDFAVYYCQQYGNSPRLSFGGGTKVEIK
Regarding B9, the 50% effective concentration (EC50) in test [1] turned out to be 2.81 ng/mL.

B10: C594 (antibody, V domains shown)
VH: QVQLVESGGGVVQPGRSLRLSCAASGFTFSSYGMHWVRQAPGKGLEWVAVISDDGSNKYYADSVKGRFTISRDNSKNTLYLQMNSLRAEDTAVYYCAKSWWLSENWFDPWGQGTLVTVSS
VL: EIVMTQSPATLSVSPGERATLSCRASQSVSSNLAWYQQKPGQAPRLLIYGASTRATGIPARFSGTGSGTEFTLTISSLQSEDFAVYYCQQYNNWPLTFGGGTKVEIK
Consider B10, for which the EC50 in test [2] turned out to be 2.63 ng/mL.

B11: C595 (antibody, V domains shown)
VH: QVQLVESGGGVVQAGRSLRLSCAASGFTFSSFGLHWVRQAPGKGLEWVAVISDDGANKYYADSVKGRFTISRDNSKNTLYLQMNSLRADDTAKYYCAKSWWLSENWFDPWGQGTLVTVSS
VL: EIVMTQSPATLSVSPGERATLSCRASQSVRSNLAWYQQKPGQAPRLLIYGASTRATGIPARFSGSGSGTDFTLTISSLQSEDFAVYYCQQYNNWPLTFGGGTKVEIK
B11 showed an EC50 in test [2] of 2.04 ng/mL.

B12: C021 (antibody, V domains shown)
VH: QVQLQESGPGLVKPSQTLSLTCTVSGGSISSGGYYWSWIRQHPGKGLEWIGYIYYSGSTYYNPSLKSRVTISVDTSKNQFSLKLSSVTAADTAVYYCARVWQYYDSSGSFDYWGQGTLVTVSS
VL: not shown
As for B12, in test [3], the concentration for a half-maximal effect (EC50) was determined as 4.19 ng/mL.

B13: C002 (antibody, V domains shown)
VH: EVQLVESGGGVVQPGRSLRLSCAASGFTFSIYGMHWVRQAPGKGLEWVAVISYDGSNKYYADSVKGRFTISRDNSKNTLYLQMNSLRAEDTAVYYCAKEGRPSDIVVVVAFDYWGQGTLVTVSS
VL: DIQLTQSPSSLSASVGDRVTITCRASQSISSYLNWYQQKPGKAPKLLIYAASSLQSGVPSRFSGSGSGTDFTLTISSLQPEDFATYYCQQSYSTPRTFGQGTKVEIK
On to B13, for which, in test [3], the midpoint of the response, the EC50, lay at 1.98 ng/mL.

B14: C591 (antibody, V domains shown)
VH: QVQLVQSGAEVKKPGASVKVSCKASGYILTDYFIHWVRQAPGQGLEWMGWINPNSGGTNYAQKFQGRVTMTRDTSISTAYMELSRLRSDDTAVYHCARYKGTTVNTNYYYGMDVWGQGTTVTVSS
VL: not shown
For the molecule B14, in test [2], the midpoint of the response, the EC50, lay at 3.83 ng/mL.

B15: C592 (antibody, V domains shown)
VH: QVQLVQSGAEVKKPGASVKVSCKASGYTFTDYFNHWVRQAPGQGLEWMGWINPNSGGTNSAQKFQGRVTMTRDTSITTVYMELSRLRSDDTAVYYCARYKGTTVNTNYYYGMDVWGQGTTVTVSS
VL: SYELTQPPSVSVSPGQTASITCSGDKLRNKYACWYQQKAGQSPMLVIYQDTKRPSGIPERFSGSNSGNTATLTISGTQAMDEADYYCQAWDISTVVFGGGTKLTVL
In test [2], B15 displayed an EC50 of 6 ng/mL.

B16: C585 (antibody, V domains shown)
VH: QVQLQESGPGLVKPSETLSLTCTVSGDSISSYFWSWIRQPPGRGLEWIGYIHDSVNTNYNPSLKSRVTISVDTSKSQFSLRLSSVTAADTAVYYCARCAWLRGSFDYWGQGTLVTVSS
VL: NFMLTQPHSVSESPGKTVTISCTGSSGSIASNYVQWYQQRPGSAPTTVIYEDNQRPSGVPDRFSGSIDSSSNSASLTISGLKTEDEADYYCQSYDFSSHYVFGTGTKVTVL
The molecule B16 yielded an EC50 in test [1] of 11 ng/mL.

B17: C588 (antibody, V domains shown)
VH: EVQLVESGGGLVQPGGSLKLSCAASGFTFSGSAMHWVRQASGKGLEWVGRIRNKANSYATAYGASVRGRFTVSRDDSKNTAYLQMNSLKIEDTAVYYCTKDIAAGIPALNWFDSWGQGTLVTVSS
VL: EIVLTQSPATLSLSPGERATLSCRASQSVSSYLAWYQQKPGQAPRLLIYDASNRATGIPARFSGSGSGTDFTLTISSLEPEDFAVYYCQQHTNWPPRITFGGGTKVEIK
Turning to B17, a half-maximal effect in test [2] (EC50) was put at 1.36 ng/mL.

B18: C588 (antibody, V domains shown)
VH: EVQLVESGGGLVQPGGSLKLSCAASGFTFSGSAMHWVRQASGKGLEWVGRIRNKANSYATAYGASVRGRFTVSRDDSKNTAYLQMNSLKIEDTAVYYCTKDIAAGIPALNWFDSWGQGTLVTVSS
VL: EIVLTQSPATLSLSPGERATLSCRASQSVSSYLAWYQQKPGQAPRLLIYDASNRATGIPARFSGSGSGTDFTLTISSLEPEDFAVYYCQQHTNWPPRITFGGGTKVEIK
The molecule B18 registered a 50% effective concentration (EC50) in test [1] of 1.36 ng/mL.

B19: C589 (antibody, V domains shown)
VH: QVQLQESGPGLVKPSQTLSLTCTVSGGSISSGDYYWSWIRQPPGKGLEWIGYIYYSGSTNYNPSLRSRVTISVDTSKNQFSLRLRSVTAADTAVYYCARDAIGSASYGVEYFQHWGQGTLVTVSS
VL: not shown
Molecule B19 gave a concentration for a half-maximal effect (EC50) in test [2] of 6.61 ng/mL.

B20: C589 (antibody, V domains shown)
VH: QVQLQESGPGLVKPSQTLSLTCTVSGGSISSGDYYWSWIRQPPGKGLEWIGYIYYSGSTNYNPSLRSRVTISVDTSKNQFSLRLRSVTAADTAVYYCARDAIGSASYGVEYFQHWGQGTLVTVSS
VL: not shown
The molecule B20 gave an EC50 in test [1] of 6.61 ng/mL.
